Source: patent publication US20030162228A1 (Chugai, published 2003)
Like-named read-outs stand apart in the source and are kept apart here. Where no end group is shown, it is not given here.

What was measured:
[1] = target: T1, TAK1 expressed from yeast 2-hybrid expression vector pBTMHu11F (Homo sapiens (Human), UniProt O43318 1-606); assay: cell-based or functional assay
T1 sequence: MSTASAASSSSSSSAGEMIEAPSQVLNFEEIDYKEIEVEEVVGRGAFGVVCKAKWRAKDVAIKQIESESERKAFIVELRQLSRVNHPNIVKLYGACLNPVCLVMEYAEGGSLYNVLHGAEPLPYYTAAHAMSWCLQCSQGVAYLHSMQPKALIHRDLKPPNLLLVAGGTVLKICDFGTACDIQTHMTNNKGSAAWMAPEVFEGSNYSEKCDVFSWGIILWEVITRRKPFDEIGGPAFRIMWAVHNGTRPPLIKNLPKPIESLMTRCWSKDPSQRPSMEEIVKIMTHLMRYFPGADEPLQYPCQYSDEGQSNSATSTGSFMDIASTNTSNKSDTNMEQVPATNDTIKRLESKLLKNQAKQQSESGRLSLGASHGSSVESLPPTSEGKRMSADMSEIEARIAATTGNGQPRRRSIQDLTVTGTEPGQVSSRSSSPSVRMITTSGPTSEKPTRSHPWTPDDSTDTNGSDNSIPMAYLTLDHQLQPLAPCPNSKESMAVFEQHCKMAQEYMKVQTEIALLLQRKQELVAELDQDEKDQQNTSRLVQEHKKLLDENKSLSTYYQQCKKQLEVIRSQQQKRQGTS

[2] = target: T1, TAK1 expressed from yeast 2-hybrid …; assay: cell-based or functional assay; remark: listed apart in the source
[3] = target: T2, recombinant human TAK1-6×His polypeptide (human, UniProt O43318 1-606); assay: competition ELISA on plate-immobilised TAK1-6×His; the blocked ligand is MBP-TAB1C-FLAG at a fixed amount
T2 construct: also called human TAK1-6xHis; recombinant TAK1 polypeptide
T2 sequence: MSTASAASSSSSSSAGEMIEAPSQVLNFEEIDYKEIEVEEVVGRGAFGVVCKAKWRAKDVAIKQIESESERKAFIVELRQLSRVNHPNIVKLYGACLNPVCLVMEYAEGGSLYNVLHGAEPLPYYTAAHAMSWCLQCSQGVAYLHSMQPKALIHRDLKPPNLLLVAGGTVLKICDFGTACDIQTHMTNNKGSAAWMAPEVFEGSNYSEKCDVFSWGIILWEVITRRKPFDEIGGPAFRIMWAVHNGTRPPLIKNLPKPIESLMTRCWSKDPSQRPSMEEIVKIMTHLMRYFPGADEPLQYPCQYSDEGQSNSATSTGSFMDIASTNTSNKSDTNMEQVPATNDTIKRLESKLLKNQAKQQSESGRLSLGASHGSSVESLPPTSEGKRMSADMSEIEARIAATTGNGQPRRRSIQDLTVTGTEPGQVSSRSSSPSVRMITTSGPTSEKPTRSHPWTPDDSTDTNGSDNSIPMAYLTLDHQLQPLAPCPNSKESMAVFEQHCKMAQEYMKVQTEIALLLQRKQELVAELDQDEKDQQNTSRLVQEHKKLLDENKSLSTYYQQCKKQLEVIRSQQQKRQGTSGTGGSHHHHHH
From the text: In a similar manner to that in the above 5-1 (2), the recombinant human TAK1-6×His polypeptide was immobilized and was blocked.

[4] = target: T3, TAB1 polypeptide of human fibroblast-derived HT-1080 cells (endogenous) (human, UniProt Q15750 1-504, limits assumed); assay: cell-based or functional assay
T3 sequence (looked up): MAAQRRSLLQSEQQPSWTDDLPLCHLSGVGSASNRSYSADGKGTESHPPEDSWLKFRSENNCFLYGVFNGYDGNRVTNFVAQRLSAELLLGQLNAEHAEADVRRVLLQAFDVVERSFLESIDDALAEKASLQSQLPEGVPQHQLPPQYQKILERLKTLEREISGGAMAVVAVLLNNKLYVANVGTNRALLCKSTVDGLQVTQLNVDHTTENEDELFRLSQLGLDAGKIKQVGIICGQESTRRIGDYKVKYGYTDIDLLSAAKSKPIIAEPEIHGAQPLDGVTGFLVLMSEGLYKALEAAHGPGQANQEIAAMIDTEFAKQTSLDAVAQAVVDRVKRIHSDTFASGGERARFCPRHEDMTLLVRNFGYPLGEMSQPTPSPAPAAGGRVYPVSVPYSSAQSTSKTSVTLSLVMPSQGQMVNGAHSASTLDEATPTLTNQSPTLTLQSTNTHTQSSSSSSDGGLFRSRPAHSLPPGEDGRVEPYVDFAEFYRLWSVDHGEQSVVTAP

[5] = target: T4, TAB1 polypeptide of mouse kidney mesangial cell line SV40MES13 (endogenous) (mouse, UniProt Q8CF89 1-502, limits assumed); assay: cell-based or functional assay
T4 sequence (looked up): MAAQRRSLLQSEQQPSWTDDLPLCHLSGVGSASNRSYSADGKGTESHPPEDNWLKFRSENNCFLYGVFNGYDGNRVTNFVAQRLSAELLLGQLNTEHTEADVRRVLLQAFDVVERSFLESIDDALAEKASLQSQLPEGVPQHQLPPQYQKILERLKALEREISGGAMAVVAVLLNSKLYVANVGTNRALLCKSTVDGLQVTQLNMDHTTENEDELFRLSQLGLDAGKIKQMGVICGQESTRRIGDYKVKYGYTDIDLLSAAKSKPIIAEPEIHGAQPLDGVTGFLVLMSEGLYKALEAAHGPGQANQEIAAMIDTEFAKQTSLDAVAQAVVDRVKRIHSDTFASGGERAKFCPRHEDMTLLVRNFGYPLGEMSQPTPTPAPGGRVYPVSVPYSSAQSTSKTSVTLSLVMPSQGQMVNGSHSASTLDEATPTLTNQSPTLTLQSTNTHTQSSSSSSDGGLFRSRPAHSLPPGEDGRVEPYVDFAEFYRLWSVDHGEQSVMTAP

[6] = target: TAB1 polypeptide of mink pulmonary epithelial cell line Mv1Lu (endogenous) (mink); assay: cell-based or functional assay
[7] = target: T1, TAK1 expressed from yeast 2-hybrid …; assay: cell-based or functional assay; remark: listed apart in the source

B1: TAB1C68, fusion with the GAL4 transcription activated domain (pGAD-TAB1) (other, not shown: large carriers)
chain: QSPTLTLQSTNTHTQSSSSSSDGGLFRSRPAHSLPPGEDGRVEPYVDFAEFYRLWSVDHGEQSVVTAP
ratio of the β-galactosidase activity to that of TAB1C68 (yeast 2-hybrid) [1]: 1
ratio of the β-galactosidase activity to that of TAB1C68 (yeast 2-hybrid) [2]: 1

B2: TAB1C45, fusion with the GAL4 transcription activated domain (pGAD-TAB1C45) (other, not shown: large carriers)
chain: GLFRSRPAHSLPPGEDGRVEPYVDFAEFYRLWSVDHGEQSVVTAP
modifications: also: fusion with GAL4 transcription activation domain
ratio of the β-galactosidase activity to that of TAB1C68 (yeast 2-hybrid) [1]: 1.19
ratio of the β-galactosidase activity to that of TAB1C68 (yeast 2-hybrid) [2]: 1.31

B3: recombinant human TAB1-FLAG polypeptide (other)
chain: MAAQRRSLLQSEQQPSWTDDLPLCHLSGVGSASNRSYSADGKGTESHPPEDSWLKFRSENNCFLYGVFNGYDGNRVTNFVAQRLSAELLLGQLNAEHAEADVRRVLLQAFDVVERSFLESIDDALAEKASLQSQLPEGVPQHQLPPQYQKILERLKTLEREISGGAMAVVAVLLNNKLYVANVGTNRALLCKSTVDGLQVTQLNVDHTTENEDELFRLSQLGLDAGKIKQVGIICGQESTRRIGDYKVKYGYTDIDLLSAAKSKPIIAEPEIHGAQPLDGVTGFLVLMSEGLYKALEAAHGPGQANQEIAAMIDTEFAKQTSLDAVAQAVVDRVKRIHSDTFASGGERARFCPRHEDMTLLVRNFGYPLGEMSQPTPSPAPAAGGRVYPVSVPYSSAQSTSKTSVTLSLVMPSQGQMVNGAHSASTLDEATPTLTNQSPTLTLQSTNTHTQSSSSSSDGGLFRSRPAHSLPPGEDGRVEPYVDFAEFYRLWSVDHGEQSVVTAPGTGGSDYKDDDDK
notes: Made in Sf9 cells with baculovirus and purified on anti-FLAG M2 gel
IC50 (read off the curve) [3]: ~1 µg/well

B4: TAK1-DN (expressed from pTAK1DN) (other)
chain: MELRQLSRVNHPNIVKLYGACLNPVCLVMEYAEGGSLYNVLHGAEPLPYYTAAHAMSWCLQCSQGVAYLHSMQPKALIHRDLKPPNLLLVAGGTVLKICDFGTACDIQTHMTNNKGSAAWMAPEVFEGSNYSEKCDVFSWGIILWEVITRRKPFDEIGGPAFRIMWAVHNGTRPPLIKNLPKPIESLMTRCWSKDPSQRPSMEEIVKIMTHLMRYFPGADEPLQYPCQ
fold increase of fibronectin in the culture supernatant on TGF-β addition, HT/DN2 cells (control HT/NEO about 6.1 fold) [4]: ~2.6 fold
fold increase of fibronectin in the culture supernatant on TGF-β addition, HT/DN14 cells (control HT/NEO about 6.1 fold) [4]: ~3 fold
fold increase of fibronectin in the extracellular matrix extract on TGF-β addition, HT/DN2 cells (control HT/NEO about 11.4 fold) [4]: ~3.5 fold
fold increase of fibronectin in the extracellular matrix extract on TGF-β addition, HT/DN14 cells (control HT/NEO about 11.4 fold) [4]: ~3.6 fold
fold increase of fibronectin in the culture supernatant on TGF-β addition, MES/DN3 cells (control MES/NEO about 3.3 fold) [5]: ~2.4 fold
fold increase of fibronectin in the culture supernatant on TGF-β addition, MES/DN6 cells (control MES/NEO about 3.3 fold) [5]: ~2.3 fold
fold increase of fibronectin in the extracellular matrix extract on TGF-β addition, MES/DN3 cells (control MES/NEO about 3.8 fold) [5]: ~2.6 fold
fold increase of fibronectin in the extracellular matrix extract on TGF-β addition, MES/DN6 cells (control MES/NEO about 3.8 fold) [5]: ~2.1 fold
fold increase of type I collagen in the culture supernatant on TGF-β addition, MES/DN3 cells (control MES/NEO about 3.6 fold) [5]: ~2 fold
fold increase of type I collagen in the culture supernatant on TGF-β addition, MES/DN6 cells (control MES/NEO about 3.6 fold) [5]: ~2 fold
fold increase of type IV collagen in the culture supernatant on TGF-β addition, MES/DN3 cells (control MES/NEO about 2.0 fold) [5]: ~1.5 fold
fold increase of type IV collagen in the culture supernatant on TGF-β addition, MES/DN6 cells (control MES/NEO about 2.0 fold) [5]: ~1.4 fold
fold increase of PAI-1 in the culture supernatant on TGF-β1 addition, Mv/DN2 cells (control cells about 16-fold) [6]: ~4.3 fold

B5: TAB1C25, fusion with the GAL4 transcription activated domain (pGAD-TAB1C25) (other, not shown: large carriers)
chain: PYVDFAEFYRLWSVDHGEQSVVTAP
modifications: also: fusion with GAL4 transcription activation domain
β-galactosidase activity of yeast L40 (yeast 2-hybrid), ratio based on TAB1C68 [7]: 0.28 ratio to TAB1C68
